Data published in publication PMC4070925.

Target: thrombin (UniProt P00734;P00734 315-363;364-622)
Experiment: plate binding assay (streptavidin-peroxidase); Thrombin-coated plate; 5'-biotin aptamer in HEPES buffer (full composition not in material) 1 h; washes 40 mM HEPES pH 7.5, 0.05% Tween-20; block 1 mg/ml BSA +

| Binder | apparent K (half saturation) |
| --- | --- |
| Bivalent Linker 1 (structured_DNA) DNA: AGATGCCTGTCGAGCATGCTGGTTGGTGTGGTTGGATTGGGGGGCAGAATGCCAGTTTAGCGTACAGTCCGTGGTAGGGCAGGTTGGGGTGACTGTAGCTAAACTGCTTTGTCGACGGG | 1.4 nM |
| Bivalent Linker 2 (structured_DNA) DNA: AGATGCCTGTCGAGCATGCTGGTTGGTGTGGTTGGTTGGTTGGCGTTCAAAGCAGTCTTGGGCTAAGTCCGTGGTAGGGCAGGTTGGGGTGACTGTAGCTAAACTGCTTTGTCGACGGG | 0.2 nM |
| Truncate III (structured_DNA) DNA: GGTTGGTGTGGTTGGTTGGTTGGCGTTCAAAGCAGTCTTGGGCTAAGTCCGTGGTAGGGCAGGTTGGGGTGACT | 0.5 nM |
| Bivalent Linker 3 (structured_DNA) DNA: AGATGCCTGTCGAGCATGCTGGTTGGTGTGGTTGGGTAGGGGCCCAGCATGACAGTTTTTGCCAAAGTCCGTGGTAGGGCAGGTTGGGGTGACTGTAGCTAAACTGCTTTGTCGACGGG | 0.4 nM |
| Bivalent Linker 4 (structured_DNA) DNA: AGATGCCTGTCGAGCATGCTGGTTGGTGTGGTTGGGTTGTGGGGAATAAAAGCAGTTTAGCGTACAGTCCGTGGTAGGGCAGGTTGGGGTGACTGTAGCTAAACTGCTTTGTCGACGGG | 0.4 nM |
| Bivalent Linker 5 (structured_DNA) DNA: AGATGCCTGTCGAGCATGCTGGTTGGTGTGGTTGGAAGTAGGTGGTTCAAAGCAGTGAAGGGTACAGTCCGTGGTAGGGCAGGTTGGGGTGACTGTAGCTAAACTGCTTTGTCGACGGG | 1 nM |
| Bivalent Linker 6 (structured_DNA) DNA: AGATGCCTGTCGAGCATGCTGGTTGGTGTGGTTGGCGGGGGCCCTCTATAGTTGCGTTCTGGATGAGTCCGTGGTAGGGCAGGTTGGGGTGACTGTAGCTAAACTGCTTTGTCGACGGG | ~20 nM |
| AGTCCGTGGTAGGGCAGGTTGGGGTGACT (structured_DNA) [Apt-29] | 0.7 nM |
| Truncate I (structured_DNA) DNA: GGTTGGTGTGGTTGGTTGGTTGGCGTTCAAAGCAGTCTTGGGCTAAGTCCGTGGTAGGGCAGGTTGGGGTGACTGTAGCTAAACTGCTTTGTCGACGGG | 1 nM |
| Truncate II (structured_DNA) DNA: AGATGCCTGTCGAGCATGCTGGTTGGTGTGGTTGGTTGGTTGGCGTTCAAAGCAGTCTTGGGCTAAGTCCGTGGTAGGGCAGGTTGGGGTGACT | 0.5 nM |
